Experiment [1] addresses T1, FcγRIIa R extracellular domain with C-terminal His tag (human, UniProt P12318 34-217).
T1 construct: extracellular domain; Soluble receptor, R131 allotype; also called FcgRIIa R; FcgRIIaR; not shown: His tag at the C terminus
T1 sequence (looked up): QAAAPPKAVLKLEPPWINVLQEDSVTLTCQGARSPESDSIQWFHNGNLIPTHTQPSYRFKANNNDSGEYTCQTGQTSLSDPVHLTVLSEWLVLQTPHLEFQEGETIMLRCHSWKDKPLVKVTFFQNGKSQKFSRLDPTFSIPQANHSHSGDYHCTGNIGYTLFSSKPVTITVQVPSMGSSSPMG
As to the kind of experiment: SPR (Biacore); ratio KD for FcγRIIb / KD for FcγRIIa R. On the procedure: (§1) These antibodies were assessed for the binding activity to each FcγR according to the method described in Reference Example 2.
(§2) Analysis of interaction between objective antibody and the FcγR was carried out using Biacore T100 (GE Healthcare). HBS-EP+ (GE Healthcare) was used as the running buffer, and the measurement temperature was set to 25° C. Chips produced by immobilizing the antigen peptide by the amine coupling method to a Series S Sencor Chip CM5 (GE Healthcare), or alternatively, chips produced by allowing preliminarily biotinylated antigen peptides to interact with and immobilize onto a Series S Sensor Chip SA (certified) (GE Healthcare) were used. Antibodies of interest were captured onto an antigen peptide-immobilized chip, and allowed to interact to each FcγR diluted with running buffer. To regenerate and repeatedly use the chip, the antibodies captured on the chip were washed off by reacting 10 mM glycine-HCl, pH 1.5.
(SPR reads the build-up and loss of mass on a sensor chip optically.)

The target in experiment [2] is T2, FcγRIIa H extracellular domain with C-terminal His tag (human, UniProt P12318 34-217).
T2 construct: extracellular domain; Soluble receptor, H131 allotype; also called FcgRIIa H; FcgRIIaH; not shown: His tag at the C terminus
T2 sequence (looked up): T1 sequence (looked up) with R134H
As to the kind of experiment: SPR (Biacore); ratio KD for FcγRIIb / KD for FcγRIIa H. On the procedure: as §1, §2

The target in experiment [3] is T3, FcgRIIIaV (human, UniProt P08637 17-208).
T3 construct: extracellular domain; Polymorphic site after J. Clin. Invest; also called FcγRIIIa V; 3aV; not shown: His tag at the C terminus
As to the kind of experiment: SPR (Biacore); KD of H240-Kn033/H240-Hl033/L73-k0 divided by KD of the variant. On the procedure: (§3) Next, the amino acid at position 330 was examined. The A330M alteration has been introduced into H240-Hl076 of H240-Kn125/H240-Hl076/L73-k0. […] L73-k0 was used as the common antibody L chain. Binding of the produced variants to FcgRIa, FcgRIIaR, FcgRIIaH, FcgRIIb, FcgRIIIaF, and FcgRIIIaV was measured according to the method of Reference Example 8.
(§4) Analysis of interaction between objective antibody and the FcγR was carried out using Biacore T100 (GE Healthcare), Biacore T200, Biacore A100, and Biacore 4000. HBS-EP+ (GE Healthcare) was used as the running buffer, and the measurement temperature was set to 25° C. Chips produced by immobilizing the antigen peptide by the amine coupling method to a Series S sensor Chip CM5 (GE Healthcare), chips produced by allowing preliminarily biotinylated antigen peptides to interact with and immobilize onto a Series S Sensor Chip SA (certified) (GE Healthcare), chips produced by immobilizing Protein L (ACTIGEN, BioVision) to Series S Sencor Chip CM5 (GE Healthcare), or chips produced by immobilizing Protein A/G (Thermo Scientific) to Series S Sencor Chip CM5 (GE Healthcare) were used. Antibodies of interest were captured onto these chips, and allowed to interact to each FcγR diluted with running buffer. To regenerate and repeatedly use the chip, the antibodies captured onto the chip were washed off by reacting 10 mM glycine-HCl, pH 1.5.

The target in experiment [4] is T4, FcgRIIb (human, UniProt P31994 43-217).
T4 construct: extracellular domain; also called FcγRIIb; 2b; not shown: His tag at the C terminus
T4 sequence (looked up): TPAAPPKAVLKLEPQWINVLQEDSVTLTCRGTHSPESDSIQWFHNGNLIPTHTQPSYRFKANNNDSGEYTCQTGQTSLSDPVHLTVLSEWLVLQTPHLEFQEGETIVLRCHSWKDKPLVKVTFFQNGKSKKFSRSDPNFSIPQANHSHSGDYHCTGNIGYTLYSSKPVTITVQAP
The experiment is described as above. On the procedure:
as §3, §4

Experiment [5] deals with T5, FcgRIIaR (human, UniProt P12318 34-217).
T5 construct: extracellular domain; also called FcγRIIa R; FcγRIIa type R; not shown: His tag at the C terminus
T5 sequence (looked up): T1 sequence (looked up)
Described as above. On the procedure: as §3, §4

For experiment [6], the target named is T6, FcgRIIaH (human, UniProt P12318 34-217).
T6 construct: extracellular domain; also called FcγRIIa H; FcγRIIa type H; not shown: His tag at the C terminus
T6 sequence (looked up): T1 sequence (looked up) with R134H
The experiment is described as above. On the procedure:
as §3, §4

Experiment [7] addresses T7, FcgRIIIaF (human, UniProt P08637 17-208).
T7 construct: extracellular domain; Polymorphic site after J. Clin. Invest; also called FcγRIIIa F; 3aF; not shown: His tag at the C terminus
The description is as above. On the procedure: as §3, §4

Experiment [8] deals with T3, FcgRIIIaV. As to the kind of experiment: SPR (Biacore), antibody captured, FcgR extracellular domain as analyte. On the procedure: as §3, §4
The target in experiment [9] is T4, FcgRIIb. Described as above. On the procedure: as §3, §4
Experiment [10] has as its target T5, FcgRIIaR. The experiment is described as above. On the procedure:
as §3, §4

Experiment [11] has as its target T6, FcgRIIaH. Described as above. On the procedure:
as §3, §4

For experiment [12], the target named is T7, FcgRIIIaF. The experiment is described as above. On the procedure: as §3, §4
A further experiment has as its target T8, FcgRIa (human, UniProt P12314 16-292).
T8 construct: extracellular domain; also called FcγRIa; FcγRI; not shown: His tag at the C terminus
The experiment is described as above. On the procedure:
as §3, §4

Residue numbers refer to the chain shown, from its start. Names may count otherwise.

T7 sequence (P08637 17-208): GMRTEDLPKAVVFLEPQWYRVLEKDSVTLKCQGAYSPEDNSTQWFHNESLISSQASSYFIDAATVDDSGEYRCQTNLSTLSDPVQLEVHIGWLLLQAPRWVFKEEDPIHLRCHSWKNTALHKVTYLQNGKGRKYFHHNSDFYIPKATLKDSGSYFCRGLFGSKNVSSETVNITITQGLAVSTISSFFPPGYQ
T3 sequence (P08637 17-208 F176V limits assumed): as the sequence (P08637 17-208) above, with F160V counted along it
T8 sequence (P12314 16-292): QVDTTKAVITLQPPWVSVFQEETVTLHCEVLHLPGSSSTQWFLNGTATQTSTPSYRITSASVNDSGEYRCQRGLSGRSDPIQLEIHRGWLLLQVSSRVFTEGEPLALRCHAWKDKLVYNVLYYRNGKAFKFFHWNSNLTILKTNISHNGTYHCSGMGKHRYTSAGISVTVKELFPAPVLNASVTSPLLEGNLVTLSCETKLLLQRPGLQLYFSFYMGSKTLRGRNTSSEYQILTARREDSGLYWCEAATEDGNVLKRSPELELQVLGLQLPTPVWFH

B1: GpH7-Kn032/GpH7-Hl032/GpL16-k0 (antibody, human IgG1, kappa)
heavy 1: QVQLVQSGAEVKKPGASVTVSCKASGYTFTDYEMHWIRQPPGEGLEWIGAIDPKTGDTAYSESFQDRVTLTADKSTSTAYMELSSLTSEDTAVYYCTRFYSYTYWGQGTLVTVSSASTKGPSVFPLAPSSKSTSGGTAALGCLVKDYFPEPVTVSWNSGALTSGVHTFPAVLQSSGLYSLSSVVTVPSSSLGTQTYICNVNHKPSNTKVDKKVEPKSCDKTHTCPPCPAPELLGGPDVFLFPPKPKDTLMISRTPEVTCVVVDVSHEDPEVKFNWYVDGVEVHNAKTKPREEQYNSTYRVVSVLTVLHQDWLNGKEYKCKVSNKALPLPEEKTISKAKGQPREPQVCTLPPSRDELTKNQVSLWCLVKGFYPSDIAVEWESNGQPENNYKTTPPVLDSDGSFFLYSKLTVDKSRWQQGNVFSCSVMHEALHNHYTQKSLSLSP
heavy 2: B1 heavy 1 with C347Y, D354C, W364S, L366A, Y405V
light: DIVMTQSPLSLPVTPGEPASISCQASESLVHSNRNTYLHWYLQKPGQSPQLLIYKVSNRFSGVPDRFSGSGSGTDFTLKISRVEAEDVGVYYCSQNTHVPPTFGQGTKVEIERTVAAPSVFIFPPSDEQLKSGTASVVCLLNNFYPREAKVQWKVDNALQSGNSQESVTEQDSKDSTYSLSSTLTLSKADYEKHKVYACEVTHQGLSSPVTKSFNRGEC
notes: Anti-glypican-3 IgG1, knobs-into-holes; both H chains carry S239D/A330L/I332E; also called Kn032/Hl032
For the molecule B1, the A/I ratio in experiment [1] is 1.8; in [2], 0.93.

B2: GpH7-Kn045/GpH7-Hl048/GpL16-k0 (antibody, human IgG1, kappa)
heavy 1: B1 heavy 1 with L232Y, L233Y, G234A, D237S, H266D, S296A, L328A, E330I
heavy 2: B1 heavy 1 with G234A, L328K, C347Y, D354C, W364S, L366A, Y405V
light: B1 light
notes: Heterodimerized anti-glypican-3 IgG1, knobs-into-holes; also called Kn045/Hl048
B2: the A/I ratio in [1] was 22; in experiment [2], 9.5.

B3: GpH7-Kn037/GpH7-Hl036/GpL16-k0 (antibody, human IgG1, kappa)
heavy 1: B1 heavy 1 with G234A, L328A
heavy 2: B1 heavy 1 with G234A, L328A, C347Y, D354C, W364S, L366A, Y405V
light: B1 light
notes: Anti-glypican-3 IgG1, knobs-into-holes; also called Kn037/Hl036
In the case of B3, the A/I ratio in experiment [1] is 13; in experiment [2], 8.6.

B4: GpH7-Kn045/GpH7-Hl055/GpL16-k0 (antibody, human IgG1, kappa)
heavy 1: B1 heavy 1 with L232Y, L233Y, G234A, D237S, H266D, S296A, L328A, E330I
heavy 2: B1 heavy 1 with G234A, Q293L, L328M, C347Y, D354C, W364S, L366A, Y405V
light: B1 light
notes: Heterodimerized anti-glypican-3 IgG1, knobs-into-holes; also called Kn045/Hl055
For B4, the figures for the A/I ratio in [1] and in [2] were 18 and 8.3, respectively.

B5: GpH7-Kn056/GpH7-Hl055/GpL16-k0 (antibody, human IgG1, kappa)
heavy 1: B1 heavy 1 with L232Y, L233Y, G234A, D237S, H266D, Q293L, S296A, L328A, E330I
heavy 2: B1 heavy 1 with G234A, Q293L, L328M, C347Y, D354C, W364S, L366A, Y405V
light: B1 light
notes: Heterodimerized anti-glypican-3 IgG1, knobs-into-holes; also called Kn056/Hl055
Consider B5, for which the A/I ratio in experiment [1] was 16; in experiment [2], 8.7.

B6: H240-Kn125/H240-Hl076/L73-k0 (antibody, human IgG1, kappa)
heavy 1: QDQLVQSGAEVKKPGASVKVSCKASGFNIKDTYIQWVRQAPGQGLEWMGRIDPLRKQTKYREKFEGRVTITADTSTNTAYMELSSLRSEDTAVYYCVRSGREFDYWGQGTLVTVSSASTKGPSVFPLAPSSKSTSGGTAALGCLVKDYFPEPVTVSWNSGALTSGVHTFPAVLQSSGLYSLSSVVTVPSSSLGTQTYICNVNHKPSNTKVDKKVEPKSCDKTHTCPPCPAPEYQWGPMVFLFPPKPKDTLMISRTPEVTCVVVDVSDEEPEVKFNWYVDGVEVHNAKTKPREEQYNATYRVVSVLTVLHQDWLNGKEYKCKVSNKALPAPIEKTISKAKGQPREPQVCTLPPSRDELTKNQVSLWCLVKGFYPSDIAVEWESNGQPENNYKTTPPVLDSDGSFFLYSKLTVDKSRWQQGNVFSCSVMHEALHNHYTQKSLSLSP
heavy 2: QDQLVQSGAEVKKPGASVKVSCKASGFNIKDTYIQWVRQAPGQGLEWMGRIDPLRKQTKYREKFEGRVTITADTSTNTAYMELSSLRSEDTAVYYCVRSGREFDYWGQGTLVTVSSASTKGPSVFPLAPSSKSTSGGTAALGCLVKDYFPEPVTVSWNSGALTSGVHTFPAVLQSSGLYSLSSVVTVPSSSLGTQTYICNVNHKPSNTKVDKKVEPKSCDKTHTCPPCPAPELLGGPSVFLFPPKPKDTLMISRTPEVTCVVVDVSHEEPEVKFNWYVDGVEVHNAKTKPREEQYNSTYRVVSVLTVLHQDWLNGKEYKCKVSNDALPMPIEETISKAKGQPREPQVYTLPPSRCELTKNQVSLSCAVKGFYPSDIAVEWESNGQPENNYKTTPPVLDSDGSFFLVSKLTVDKSRWQQGNVFSCSVMHEALHNHYTQKSLSLSP
light: DIQMTQSPSSLSASVGDRVTITCRASQDIHKYIAWYQQKPGQAPRLLIQYTSTLQPGVPSRFSGSGSGTDYTFTISSLQPEDIATYYCLQYEQLRTFGGGTKVEIKRTVAAPSVFIFPPSDEQLKSGTASVVCLLNNFYPREAKVQWKVDNALQSGNSQESVTEQDSKDSTYSLSSTLTLSKADYEKHKVYACEVTHQGLSSPVTKSFNRGEC
notes: Template of the position 330 series
For the molecule B6, the “fold 3aV” value in the experiment with FcgRIIIaV [3] is 185 fold. Also, the “fold 2b” value in the experiment with FcgRIIb [4] was found to be 0.8 fold. Also, the “fold 2aR” value in the experiment with FcgRIIaR [5] was 1.8 fold. For the same molecule, the “fold 2aH” value in the experiment with FcgRIIaH [6] turned out to be 3.7 fold. Further, the “fold 3aF” value with FcgRIIIaF [7] was 223 fold. The equilibrium dissociation constant (Kd) came to 0.26 nM with FcgRIIIaV [8]; 3900 nM in the experiment with FcgRIIb [9]; 420 nM with FcgRIIaR [10]; 140 nM in the experiment with FcgRIIaH [11]; 1.3 nM with FcgRIIIaF [12]; 0.066 nM with FcgRIa.

The Kd is the concentration at which binding is half-saturated. Higher therefore signals weaker binding.

(Values after patent US20150344570A1 (published 2015).)
